Patent US20260022364A1, “ERT2 MUTANTS, INDUCIBLE CELL DEATH SYSTEMS, AND USES THEREOF” (Senti Biosciences, Inc., priority 2023, published 2026)

Columns and labels:
[1] = test system: dimerization of two modified ER-LBDs; assay: Transcriptional reporter assay for dimerization activity; format: cell-based; conditions: data not shown
NK cells = assay: Validation of ERT2 mutants with mCherry reporter in NK cells; format: cell-based; conditions: primary NK cells
Protocol: After 10 days of feeder cell activation, NK cells were co-transduced with ERT2 mutant virus and reporter SB01066 virus (Experimental Set-up 1). On Day 2 after transduction, transduced NK cells were treated with endoxifen or 4-OHT at a range of concentrations of 0 nM, 0.01 nM, 0.1 nM, 1 nM, and 10 nM. On Day 4, cells were checked for mCherry expression by flow cytometry.

B1: SB06136: ZF10-1_p65_ERT2 mutant; L384M/L391V/N413D/M421L/S463P/H524L (protein)
chain: AGDMRAANLWPSPLMIKRSKKNSLALSLTADQMVSALLDAEPPILYSEYDPTRPFSEASMMGLLTNLADRELVHMINWAKRVPGFVDLTLHDQVHLLECAWMEILMIGVVWRSMEHPVKLLFAPNLLLDRDQGKCVEGLVEIFDMLLATSSRFRMMNLQGEEFVCLKSIILLNSGVYTFLPSTLKSLEEKDHIHRVLDKITDTLIHLMAKAGLTLQQQHQRLAQLLLILSHIRHMSNKGMELLYSMKCKNVVPLYDLLLEAADAHRLHAPTSRGGASVEETDQSHLATAGSTSSHSLQKYYITGEAEGFPAT
[1]
  dimerization of two modified ER-LBDs to 4-OHT: did not directly alter dimerization
NK cells
  4-OHT concentration at which variant was sensitive (mCherry): 0.1 nM
  endoxifen concentration at which variant was sensitive (mCherry): 0.1 nM
